{"source": "paper PMC5834258", "about": "“Selective targeting of collagen IV in the cancer cell microenvironment reduces tumor burden” (Oncotarget, 2018)", "key": {"[1]": {"biological_target": "T1, Goodpasture antigen-binding protein (GPBP) (Homo sapiens, UniProt Q9Y5P4)", "T1 construct": "gene CERT1; FLAG-tagged recombinant GPBP multimer (77-kDa GPBP isoform); also native extracellular A427 GPBP", "T1 sequence (Q9Y5P4 1-624)": "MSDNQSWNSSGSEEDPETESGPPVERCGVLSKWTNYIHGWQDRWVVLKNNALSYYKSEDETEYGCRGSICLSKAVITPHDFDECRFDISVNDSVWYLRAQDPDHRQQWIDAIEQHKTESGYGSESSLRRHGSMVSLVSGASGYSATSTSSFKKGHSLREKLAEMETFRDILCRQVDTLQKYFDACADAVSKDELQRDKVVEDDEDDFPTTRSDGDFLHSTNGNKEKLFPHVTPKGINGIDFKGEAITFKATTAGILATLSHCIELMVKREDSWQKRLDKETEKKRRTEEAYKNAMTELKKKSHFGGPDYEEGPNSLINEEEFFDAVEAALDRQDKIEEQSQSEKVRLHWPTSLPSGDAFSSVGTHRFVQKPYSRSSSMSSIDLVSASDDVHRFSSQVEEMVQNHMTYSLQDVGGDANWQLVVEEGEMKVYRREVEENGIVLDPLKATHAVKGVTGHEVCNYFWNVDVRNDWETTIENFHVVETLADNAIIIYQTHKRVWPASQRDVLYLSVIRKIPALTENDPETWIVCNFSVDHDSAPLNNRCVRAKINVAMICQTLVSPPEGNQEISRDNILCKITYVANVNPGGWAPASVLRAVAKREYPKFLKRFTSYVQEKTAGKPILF", "assay": "[…] in vitro autophosphorylation of purified multimeric GPBP at […] T12; FPLC-SEC shift of GPBP oligomers (BSA control unaffected)", "format": "biochemical"}, "[2]": {"biological_target": "T2, GPBP (FLAG-GPBP) (Homo sapiens, UniProt Q9Y5P4)", "T2 construct": "gene CERT1; FLAG-GPBP", "T2 sequence (Q9Y5P4 1-624)": "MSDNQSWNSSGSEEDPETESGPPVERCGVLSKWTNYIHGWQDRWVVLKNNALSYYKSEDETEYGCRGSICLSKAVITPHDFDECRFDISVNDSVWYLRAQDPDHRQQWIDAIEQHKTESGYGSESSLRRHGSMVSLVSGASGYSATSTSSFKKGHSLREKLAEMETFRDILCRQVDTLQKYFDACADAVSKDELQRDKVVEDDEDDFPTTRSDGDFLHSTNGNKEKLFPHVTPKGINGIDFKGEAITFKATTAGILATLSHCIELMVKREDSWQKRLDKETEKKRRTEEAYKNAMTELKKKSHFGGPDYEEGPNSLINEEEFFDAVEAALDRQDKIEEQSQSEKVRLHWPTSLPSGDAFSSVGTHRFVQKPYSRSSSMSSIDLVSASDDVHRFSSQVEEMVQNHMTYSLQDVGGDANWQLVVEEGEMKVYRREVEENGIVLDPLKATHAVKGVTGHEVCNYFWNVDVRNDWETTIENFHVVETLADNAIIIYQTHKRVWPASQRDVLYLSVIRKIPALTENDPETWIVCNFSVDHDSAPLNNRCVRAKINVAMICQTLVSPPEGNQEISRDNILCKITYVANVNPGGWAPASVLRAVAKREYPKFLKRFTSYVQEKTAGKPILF", "assay": "[…] in vitro autophosphorylation of FLAG-GPBP (Figure 9G)", "format": "biochemical"}, "[3]": {"biological_target": "the molecule itself", "assay": "SEC; FPLC-SEC on Superdex 200 of FLAG-GPBP purified from Sf9 culture media; calibrators thyroglobulin, aldolase, human serum albumin"}, "[4]": {"biological_target": "the molecule itself", "assay": "SEC; GPBP affinity-purified from culture media of A427 and A549 cells (scFvN26 column, native elution with peptide PS132), FPLC-SEC on Superdex 200, fractions read by indirect ELISA with anti-GPBP mAb"}, "[5]": {"biological_target": "the molecule itself", "assay": "SEC; HPLC-SEC on TSKgel G4000SW of purified yeast recombinant FLAG-tagged polypeptides"}}, "data": [{"molecule": "COc1ccc(-c2ccc(-c3cccc(C)c3)c(C)c2)c(CCC(=O)O)c1", "note": "[T12, 3-[4″-methoxy-3,2′-dimethyl-(1,1′;4′,1″)terphenyl-2″-yl]propionic acid]", "values": [{"measurement": "32P in vitro autophosphorylation of purified multimeric GPBP at 50 μM T12; FPLC-", "setting": "[1]", "result": "T12 reduced autophosphorylation of recombinant multimer but did not affect the recombinant GPBP trimer autophosphorylation activity"}]}, {"molecule": "COc1cccc2c1C(=O)c1c(O)c3c(c(O)c1C2=O)C[C@@](O)(C(=O)CO)C[C@@H]3O[C@H]1C[C@H](N)[C@H](O)[C@H](C)O1", "note": "[doxorubicin]", "values": [{"measurement": "32P in vitro autophosphorylation of FLAG-GPBP (Figure 9G)", "setting": "[2]", "result": "it was shown the existence of GPBP species sensitive to doxorubicin (Figure 9G)"}]}, {"molecule": "FLAG-tagged GPBP (Goodpasture antigen-binding protein), extracellular pool from Sf9 cells (natural protein, human, UniProt Q9Y5P4 1-624, looked up, Constructs may be described in the extended methods (Supplementary Materials); also called FLAG-GPBP; extracellular GPBP) MSDNQSWNSSGSEEDPETESGPPVERCGVLSKWTNYIHGWQDRWVVLKNNALSYYKSEDETEYGCRGSICLSKAVITPHDFDECRFDISVNDSVWYLRAQDPDHRQQWIDAIEQHKTESGYGSESSLRRHGSMVSLVSGASGYSATSTSSFKKGHSLREKLAEMETFRDILCRQVDTLQKYFDACADAVSKDELQRDKVVEDDEDDFPTTRSDGDFLHSTNGNKEKLFPHVTPKGINGIDFKGEAITFKATTAGILATLSHCIELMVKREDSWQKRLDKETEKKRRTEEAYKNAMTELKKKSHFGGPDYEEGPNSLINEEEFFDAVEAALDRQDKIEEQSQSEKVRLHWPTSLPSGDAFSSVGTHRFVQKPYSRSSSMSSIDLVSASDDVHRFSSQVEEMVQNHMTYSLQDVGGDANWQLVVEEGEMKVYRREVEENGIVLDPLKATHAVKGVTGHEVCNYFWNVDVRNDWETTIENFHVVETLADNAIIIYQTHKRVWPASQRDVLYLSVIRKIPALTENDPETWIVCNFSVDHDSAPLNNRCVRAKINVAMICQTLVSPPEGNQEISRDNILCKITYVANVNPGGWAPASVLRAVAKREYPKFLKRFTSYVQEKTAGKPILF", "values": [{"measurement": "binding result", "setting": "[3]", "result": "binds"}]}, {"molecule": "native extracellular GPBP isolated from the culture media of human NSCLC cells (A427, A549) (natural protein, human (endogenous in A427 and A549), UniProt Q9Y5P4 1-624, looked up, also called native extracellular A427 GPBP; mesenchymal GPBP) MSDNQSWNSSGSEEDPETESGPPVERCGVLSKWTNYIHGWQDRWVVLKNNALSYYKSEDETEYGCRGSICLSKAVITPHDFDECRFDISVNDSVWYLRAQDPDHRQQWIDAIEQHKTESGYGSESSLRRHGSMVSLVSGASGYSATSTSSFKKGHSLREKLAEMETFRDILCRQVDTLQKYFDACADAVSKDELQRDKVVEDDEDDFPTTRSDGDFLHSTNGNKEKLFPHVTPKGINGIDFKGEAITFKATTAGILATLSHCIELMVKREDSWQKRLDKETEKKRRTEEAYKNAMTELKKKSHFGGPDYEEGPNSLINEEEFFDAVEAALDRQDKIEEQSQSEKVRLHWPTSLPSGDAFSSVGTHRFVQKPYSRSSSMSSIDLVSASDDVHRFSSQVEEMVQNHMTYSLQDVGGDANWQLVVEEGEMKVYRREVEENGIVLDPLKATHAVKGVTGHEVCNYFWNVDVRNDWETTIENFHVVETLADNAIIIYQTHKRVWPASQRDVLYLSVIRKIPALTENDPETWIVCNFSVDHDSAPLNNRCVRAKINVAMICQTLVSPPEGNQEISRDNILCKITYVANVNPGGWAPASVLRAVAKREYPKFLKRFTSYVQEKTAGKPILF", "values": [{"measurement": "binding result", "setting": "[4]", "result": "binds"}]}, {"molecule": "yeast recombinant FLAG-tagged GPBP (natural protein, human, UniProt Q9Y5P4 1-624, looked up, also called FLAG-GPBP) MSDNQSWNSSGSEEDPETESGPPVERCGVLSKWTNYIHGWQDRWVVLKNNALSYYKSEDETEYGCRGSICLSKAVITPHDFDECRFDISVNDSVWYLRAQDPDHRQQWIDAIEQHKTESGYGSESSLRRHGSMVSLVSGASGYSATSTSSFKKGHSLREKLAEMETFRDILCRQVDTLQKYFDACADAVSKDELQRDKVVEDDEDDFPTTRSDGDFLHSTNGNKEKLFPHVTPKGINGIDFKGEAITFKATTAGILATLSHCIELMVKREDSWQKRLDKETEKKRRTEEAYKNAMTELKKKSHFGGPDYEEGPNSLINEEEFFDAVEAALDRQDKIEEQSQSEKVRLHWPTSLPSGDAFSSVGTHRFVQKPYSRSSSMSSIDLVSASDDVHRFSSQVEEMVQNHMTYSLQDVGGDANWQLVVEEGEMKVYRREVEENGIVLDPLKATHAVKGVTGHEVCNYFWNVDVRNDWETTIENFHVVETLADNAIIIYQTHKRVWPASQRDVLYLSVIRKIPALTENDPETWIVCNFSVDHDSAPLNNRCVRAKINVAMICQTLVSPPEGNQEISRDNILCKITYVANVNPGGWAPASVLRAVAKREYPKFLKRFTSYVQEKTAGKPILF", "values": [{"measurement": "binding result", "setting": "[5]", "result": "binds"}]}, {"molecule": "yeast recombinant FLAG-tagged GPBP-Ala264 (natural protein, human, UniProt Q9Y5P4 1-624, looked up, Mainly trimeric by SEC, with traces of higher and lower MW materials; source: yeast, purified) MSDNQSWNSSGSEEDPETESGPPVERCGVLSKWTNYIHGWQDRWVVLKNNALSYYKSEDETEYGCRGSICLSKAVITPHDFDECRFDISVNDSVWYLRAQDPDHRQQWIDAIEQHKTESGYGSESSLRRHGSMVSLVSGASGYSATSTSSFKKGHSLREKLAEMETFRDILCRQVDTLQKYFDACADAVSKDELQRDKVVEDDEDDFPTTRSDGDFLHSTNGNKEKLFPHVTPKGINGIDFKGEAITFKATTAGILATLSHCIALMVKREDSWQKRLDKETEKKRRTEEAYKNAMTELKKKSHFGGPDYEEGPNSLINEEEFFDAVEAALDRQDKIEEQSQSEKVRLHWPTSLPSGDAFSSVGTHRFVQKPYSRSSSMSSIDLVSASDDVHRFSSQVEEMVQNHMTYSLQDVGGDANWQLVVEEGEMKVYRREVEENGIVLDPLKATHAVKGVTGHEVCNYFWNVDVRNDWETTIENFHVVETLADNAIIIYQTHKRVWPASQRDVLYLSVIRKIPALTENDPETWIVCNFSVDHDSAPLNNRCVRAKINVAMICQTLVSPPEGNQEISRDNILCKITYVANVNPGGWAPASVLRAVAKREYPKFLKRFTSYVQEKTAGKPILF", "values": [{"measurement": "stoichiometry N", "setting": "[5]", "result": 3}]}]}
